B1: SRα (natural protein)
chain: MLDFFTIFSKGGLVLWCFQGVSDSCTGPVNALIRSVLLQERGGNNSFTHEALTLKYKLDNQFELVFVVGFQKILTLTYVDKLIDDVHRLFRDKYRTEIQQQSALSLLNGTFDFQNDFLRLLREREESSKIRAPTTMKKFEDSEKAKKPVRSMIETRGEKPKEKAKNSKKKGAKKESSDGPLATGKAVPAEKSGLPAGPENGVELSKEELIRRKREEFIQKHGRGLEKSSKSTKSDAPKEKGKKAPRVWALGGCANKEVLDYSAPTTNGAPDAAPPEDINLIRGTGPGGQLQDLDCSSSDDEETAQNASKPSATKGTLGGMFGMLKGLVGSKSLSREDMESVLDKMRDHLIAKNVAADIAVQLCESVANKLEGKVMGTFSTVTSTVKQALQESLVQILQPQRRVDMLRDIMDAQRHQRPYVVTFCGVNGVGKSTNLAKISFWLLENGFSVLIAACDTFRAGAVEHVRTHTRRLSALHPPEKHAGPTMVQLFEKGYGKDAAGIAMEAIAFARNQGFDVVLVDTAGRMQDNAPLMTALAKLITVNTPDLVLFVGEALVGNEAVDQLVKFNRALADHSMAQTPRLIDGIVLTKFDTIDDKVGAAISMTYITSKPIVFVGTGQTYCDLRSLNAKAVVAALMKA
B2: TRAM (natural protein)
chain: MAIRKKSTKSPPVLSHEFILQNHADIVSCVAMVFLLGLMFEITAKASIIFVTLQYNVTLPATEEQATESTSLYYYGIKDLATVFFYMLVAIIIHAIIQEYVLDKINRRMHFSKTKHSKFNESGQLSAFYLFSCIWGTFILISENYISDPTILWRAYPHNLMTFQMKFFYIAQLAYWFHAFPELYFQKTKKEDIPRQLVYIGLYLFHIAGAYLLNLNHLGLVLLVLHYFVEFLFHISRLFYFSDEKYQKGFSLWAVLFVLGRLLTLILSVLTVGFGLARAENQKLDFSAGNFNVLAVRIAVLASICITQAFMMWKFINFQLRRWREHSTFQAPVVKKKPTVTKGRSSRKGTENGVNGTVTSNGADSPRNRKEKSS
B3: TRAPα (natural protein)
chain: GPGGSLVAAQDLTEDEETVEDSIIEDEDDEAEVEEDEPTDLAEDKEEEDVSGEPEASPSADTTILFVKGEDFPANNIVKFLVGFTNKGTEDFIVESLDASFRYPQDYQFYIQNFTALPLNTVVPPQRQATFEYSFIPAEPMGGRPFGLVINLNYKDLNGNVFQDAVFNQTVTIIEREDGLDGETIFMYMFLAGLGLLVVVGLHQLLESRKRKRPIQKVEMGTSSQNDVDMSWIPQETLNQINKASPRRLPRKRAQKRSVGSDE

Key:
Sec61α = Sec61α (canine (endogenous in MDCK), UniProt P38377 1-476); experiment: FRET or BRET
Sec61β = Sec61β (canine (endogenous in MDCK), UniProt P60467 1-96); experiment: FRET or BRET
Sec61β, sequence (P60467 whole entry): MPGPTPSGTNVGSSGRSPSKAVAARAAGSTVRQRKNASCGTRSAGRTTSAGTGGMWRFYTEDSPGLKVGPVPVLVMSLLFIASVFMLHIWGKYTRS

Sec61α, sequence (P38377 whole entry): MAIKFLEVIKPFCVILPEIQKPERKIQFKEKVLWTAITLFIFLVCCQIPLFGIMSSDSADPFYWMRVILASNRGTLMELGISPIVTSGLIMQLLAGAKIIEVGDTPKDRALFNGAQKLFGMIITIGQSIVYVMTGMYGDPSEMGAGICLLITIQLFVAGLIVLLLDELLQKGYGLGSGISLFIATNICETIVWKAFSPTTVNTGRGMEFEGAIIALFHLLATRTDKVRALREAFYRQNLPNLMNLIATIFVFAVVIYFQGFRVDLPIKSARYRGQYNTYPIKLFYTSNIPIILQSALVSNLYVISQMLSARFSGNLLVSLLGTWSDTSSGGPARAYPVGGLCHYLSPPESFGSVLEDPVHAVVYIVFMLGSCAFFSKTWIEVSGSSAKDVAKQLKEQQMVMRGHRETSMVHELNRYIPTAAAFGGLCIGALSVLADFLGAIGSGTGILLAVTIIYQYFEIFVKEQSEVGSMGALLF

Row | FRET efficiency (pactamycin-treated cells) (Sec61α) [%] | FRET efficiency (puromycin-treated cells) (Sec61α) [%] | FRET efficiency (untreated cells) (Sec61α) [%] | FRET efficiency (pactamycin-treated cells) (Sec61β) [%] | FRET efficiency (puromycin-treated cells) (Sec61β) [%] | FRET efficiency (untreated cells) (Sec61β) [%] | Binder
1 | 32.2 | 31.6 | 34.1 | 18.8 | 17.2 | 16 | B1
2 | 19.7 | 19.8 | 17.6 | 10.4 | 11.9 | 12.8 | B2
3 | 15.2 | 13.6 | 18.4 | 11.8 | 11.1 | 13.6 | B3

From article PMC2172055 (The Journal of Cell Biology, 2004)
